Measurements from patent publication US20220259297A1 (ACCELERON PHARMA, published 2022).

Tests used:
Assay in all cases: SPR (Biacore); receptor-Fc captured by anti-Fc antibody, ligand injected
GDF8 = target: T1, GDF8 (UniProt O14793 267-375)
T1 construct: also called myostatin
T1 sequence (looked up): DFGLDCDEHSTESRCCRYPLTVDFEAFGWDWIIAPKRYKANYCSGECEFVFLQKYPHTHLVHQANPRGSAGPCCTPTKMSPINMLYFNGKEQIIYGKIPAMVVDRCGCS
Description: (§1) A Biacore™-based binding assay was used to compare ligand binding selectivity of an exemplary ALK4-Fc:ActRIIB-Fc heterodimeric complex as described above with the binding selectivity of ActRIIB-Fc and ALK4-Fc homodimer complexes. The ALK4-Fc:ActRIIB-Fc heterodimer, ActRIIB-Fc homodimer, and ALK4-Fc homodimer were independently captured onto the system using an anti-Fc antibody. Ligands were injected and allowed to flow over the captured receptor protein. Results are summarized in the Table 5 below, in which ligand off-rates (kd) most indicative of effective ligand traps are denoted by gray shading.

BMP6 = target: T2, BMP6 (UniProt P22004 382-513, limits assumed)
T2 sequence (looked up): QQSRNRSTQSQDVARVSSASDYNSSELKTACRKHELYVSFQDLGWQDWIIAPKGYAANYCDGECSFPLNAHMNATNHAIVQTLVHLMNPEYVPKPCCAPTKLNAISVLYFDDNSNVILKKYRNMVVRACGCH
Description: as §1

BMP10 = target: T3, BMP10 (UniProt O95393 317-424)
T3 sequence (looked up): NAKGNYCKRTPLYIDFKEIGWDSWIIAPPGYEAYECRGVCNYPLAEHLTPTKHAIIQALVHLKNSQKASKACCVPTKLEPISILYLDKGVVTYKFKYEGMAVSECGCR
Description: as §1

GDF3 = target: T4, GDF3 (UniProt Q9NR23 251-364)
T4 sequence (looked up): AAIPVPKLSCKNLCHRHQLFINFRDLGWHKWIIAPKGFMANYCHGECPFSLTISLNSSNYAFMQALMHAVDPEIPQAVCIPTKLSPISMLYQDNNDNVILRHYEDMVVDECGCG
Description: as §1

activin A = target: T5, activin A (UniProt P08476 311-426)
T5 sequence (looked up): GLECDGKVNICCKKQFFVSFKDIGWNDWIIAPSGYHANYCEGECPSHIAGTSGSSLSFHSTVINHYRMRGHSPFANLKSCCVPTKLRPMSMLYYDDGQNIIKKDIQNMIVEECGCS
Description: as §1

GDF11 = target: T6, GDF11 (UniProt O95390 299-407)
T6 construct: also called BMP11
T6 sequence (looked up): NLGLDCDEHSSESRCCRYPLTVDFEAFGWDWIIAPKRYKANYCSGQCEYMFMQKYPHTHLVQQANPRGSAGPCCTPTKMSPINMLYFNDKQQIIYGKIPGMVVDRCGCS
Description: as §1

activin B = target: T7, activin B (UniProt P09529 293-407)
T7 sequence (looked up): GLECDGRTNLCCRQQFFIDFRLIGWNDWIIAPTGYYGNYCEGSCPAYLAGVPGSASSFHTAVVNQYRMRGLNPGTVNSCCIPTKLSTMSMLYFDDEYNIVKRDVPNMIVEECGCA
Description: as §1

- koff (GDF8): 0.00021 s⁻¹
- kon (GDF8): 390000 M⁻¹ s⁻¹
- koff (BMP6): 0.0055 s⁻¹
- kon (BMP6): 2e+06 M⁻¹ s⁻¹
- koff (BMP10): 0.0041 s⁻¹
- kon (BMP10): 5.6e+07 M⁻¹ s⁻¹
- koff (GDF3): 0.017 s⁻¹
- kon (GDF3): 3.4e+06 M⁻¹ s⁻¹
- koff (activin A): 0.00015 s⁻¹
- kon (activin A): 1.3e+07 M⁻¹ s⁻¹
- koff (GDF11): 0.00011 s⁻¹
- kon (GDF11): 3.8e+07 M⁻¹ s⁻¹
- koff (activin B): 4e-05 s⁻¹
- kon (activin B): 7.1e+06 M⁻¹ s⁻¹
B1: ALK4-Fc:ActRIIB-Fc heterodimer (Fc fusion)
chain 1: SGPRGVQALLCACTSCLQANYTCETDGACMVSIFNLDGMEHHVRTCIPKVELVPAGKPFYCLSSEDLRNTHCCYTDYCNRIDLRVPSGHLKEPEHPSMWGPVETGGGTHTCPPCPAPELLGGPSVFLFPPKPKDTLMISRTPEVTCVVVDVSHEDPEVKFNWYVDGVEVHNAKTKPREEQYNSTYRVVSVLTVLHQDWLNGKEYKCKVSNKALPAPIEKTISKAKGQPREPQVYTLPPSREEMTKNQVSLTCLVKGFYPSDIAVEWESNGQPENNYDTTPPVLDSDGSFFLYSDLTVDKSRWQQGNVFSCSVMHEALHNHYTQKSLSLSPG
chain 2: GRGEAETRECIYYNANWELERTNQSGLERCEGEQDKRLHCYASWRNSSGTIELVKKGCWLDDFNCYDRQECVATEENPQVYFCCCEGNFCNERFTHLPEAGGPEVTYEPPPTAPTGGGTHTCPPCPAPELLGGPSVFLFPPKPKDTLMISRTPEVTCVVVDVSHEDPEVKFNWYVDGVEVHNAKTKPREEQYNSTYRVVSVLTVLHQDWLNGKEYKCKVSNKALPAPIEKTISKAKGQPREPQVYTLPPSRKEMTKNQVSLTCLVKGFYPSDIAVEWESNGQPENNYKTTPPVLKSDGSFFLYSKLTVDKSRWQQGNVFSCSVMHEALHNHYTQKSLSLSPGK
notes: The C-terminal lysine is optional; also called ALK4-Fc:ActRIIB-Fc heterodimeric complex; ALK4:ActRIIB heterodimer
